Experiment [1] has as its target T1, human SEMG2 full-length protein (human, UniProt Q02383 24-582, limits assumed).
T1 construct: also called SEMG2 protein; semenogelin 2
T1 sequence: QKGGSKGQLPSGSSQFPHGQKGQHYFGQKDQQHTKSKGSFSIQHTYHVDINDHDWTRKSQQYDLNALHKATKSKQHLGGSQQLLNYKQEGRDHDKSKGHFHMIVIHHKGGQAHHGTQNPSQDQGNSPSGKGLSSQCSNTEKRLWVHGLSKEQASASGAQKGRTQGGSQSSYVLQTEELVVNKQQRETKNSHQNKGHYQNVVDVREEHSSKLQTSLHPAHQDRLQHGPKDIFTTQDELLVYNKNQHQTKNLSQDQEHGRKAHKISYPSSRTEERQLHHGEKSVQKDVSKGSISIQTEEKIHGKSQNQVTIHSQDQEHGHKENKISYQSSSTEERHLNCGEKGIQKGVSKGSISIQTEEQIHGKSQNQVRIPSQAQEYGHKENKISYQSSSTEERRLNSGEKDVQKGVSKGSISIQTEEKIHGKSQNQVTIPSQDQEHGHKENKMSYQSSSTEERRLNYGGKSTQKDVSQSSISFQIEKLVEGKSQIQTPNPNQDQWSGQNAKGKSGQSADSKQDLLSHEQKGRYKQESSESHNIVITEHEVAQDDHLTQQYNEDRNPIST
Nature of the experiment: ELISA on SEMG2; the EC50 table prints no unit, the axis is log (antibody concentration, nM).

In experiment [2] the target is T2, BSA-conjugated human SEMG2 (497-509) polypeptide (human, also: coupled to BSA, site not given here).
T2 peptide: QIEKLVEGKSQIQ
Nature of the experiment: ELISA, OD450 against antibody concentration (FIG. 21).

Experiment [3] concerns the target T3, SEMG2(497-509) polypeptide QIEKLVEGKSQIQ (human).
T3 peptide: QIEKLVEGKSQIQ
Nature of the experiment: phage display screening on BSA- and KLH-coupled peptide, ELISA. The text has this:
Specifically, the preparation of polypeptide antigens and the screening of human natural antibody library were firstly performed. […] ELISA was used to select clones that bind to antigenic epitopes for preliminary screening. Different unique sequences were obtained after sequencing single colonies, sorted according to affinity sorting, and full-length antibodies were constructed from antigen-binding fragments (Fab) with relatively high affinity. The binding ability and blocking function tests were performed after purification, that is, the effect of the antibody on binding between SEMG2 and CD27 was determined by the ELISA experiment.
In general terms: In an ELISA, binding on a coated surface is turned into a signal by an enzyme label.

The target of experiment [4] is T1, human SEMG2 full-length protein. Nature of the experiment: biolayer interferometry (ForteBio Blitz or Gator). The essentials:
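KD of antibodies binding human SEMG2 measured by biolayer interferometry, with antibody and SEMG2 in SD buffer. KD derived by binding-curve analysis.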

No end group written: not given here.

B1: H88-93 (antibody, V domains shown)
VH: QITLKESGPTLVKPTQTLTLTCNFSGFSLTTSGVGVAWIRQPPGKALEWLALIYWDDDQRYSPSLKSRLSVTKHTSKDQVVLTMTNVGPVDTATYYCAHLSYGPGWGYYMDVWGNGTMVTVSS
VL: EIVLTQSPGTLSLSPGERASLSCRASQSVRNNYLAWYQQKPGQAPRLLIFGASNRATGIPDTFSGSGSGTDFTLTISRLEPEDFAVYYCQQYGHSPITFGQGTRLEIK
notes: Fully human full-length antibody built from a phage Fab
In experiment [1], B1 had a concentration giving a half-maximal response (EC50) of 0.0636 nM. In addition, the binding result in experiment [2] and in experiment [3] was “binds” each time. This molecule also gave a Kd in experiment [4] of 4.6 nM.

The term EC50 denotes the midpoint of the concentration-response curve. Lower therefore signals an effect from little substance. What is called Kd is the free concentration of one partner at which half of the binding sites on the other are occupied at equilibrium, for simple one-to-one binding. Low values mean higher affinity, high ones lower affinity.

For the origin of these results see patent US20230080534A1 (SHANGHAI BIOTROY BIOTECHNIQUE, published 2023).
